Several values for one entry are separate records, joined by “and”; a condition that tells them apart may be missing. Identical values can stand only once. Like-named read-outs stand apart in the source and are kept apart here. Primed or numbered codes have the meaning given here. Where no end group is shown, it is not given here. [ ]: non-standard residue; d: D form. The star is where a group is joined. PEG2′ = short PEG linker placed between the N-terminal FITC label and the peptide; FITC = O=C1OC2(c3ccc(O)cc3Oc3cc(O)ccc32)c2ccc(NC(=S)*)cc21; pT = C[C@@H](OP(=O)(O)O)[C@H](N)C(=O)O; pS = N[C@@H](COP(=O)(O)O)C(=O)O
B1: fluorescently labeled peptide 11, APN 36–73 pSer43 pThr63 (peptide)
peptide: EKNKNAN[pS]SPVASTTPSASATTNPASA[pT]TLDQSKAWNR
modifications: not fully specified (N-terminus); also: FITC via PEG2 linker, site not given here
B2: 14-3-3η, full length, N-terminally His6-tagged (natural protein)
chain: MGDREQLLQRARLAEQAERYDDMASAMKAVTELNEPLSNEDRNLLSVAYKNVVGARRSSWRVISSIEQKTMADGNEKKLEKVKAYREKIEKELETVCNDVLSLLDKFLIKNCNDFQYESKVFYLKMKGDYYRYLAEVASGEKKNSVVEASEAAYKEAFEISKEQMQPTHPIRLGLALNFSVFYYEIQNAPEQACLLAKQAFDDAIAELDTLNEDSYKDSTLIMQLLRDNLTLWTSDQQDEEAGEGN
B3: fluorescently labeled peptide 7, APN 36–73 pSer43 (peptide)
peptide: EKNKNAN[pS]SPVASTTPSASATTNPASATTLDQSKAWNR
modifications: not fully specified (N-terminus); also: FITC via PEG2 linker, site not given here
B4: 14-3-3σ, full length, N-terminally His6-tagged (natural protein)
chain: MERASLIQKAKLAEQAERYEDMAAFMKGAVEKGEELSCEERNLLSVAYKNVVGGQRAAWRVLSSIEQKSNEEGSEEKGPEVREYREKVETELQGVCDTVLGLLDSHLIKEAGDAESRVFYLKMKGDYYRYLAEVATGDDKKRIIDSARSAYQEAMDISKKEMPPTNPIRLGLALNFSVFHYEIANSPEEAISLAKTTFDEAMADLHTLSEDSYKDSTLIMQLLRDNLTLWTADNAGEEGGEAPQEPQS
B5: 14-3-3β/α, full length, N-terminally His6-tagged (natural protein)
chain: MTMDKSELVQKAKLAEQAERYDDMAAAMKAVTEQGHELSNEERNLLSVAYKNVVGARRSSWRVISSIEQKTERNEKKQQMGKEYREKIEAELQDICNDVLELLDKYLIPNATQPESKVFYLKMKGDYFRYLSEVASGDNKQTTVSNSQQAYQEAFEISKKEMQPTHPIRLGLALNFSVFYYEILNSPEKACSLAKTAFDEAIAELDTLNEESYKDSTLIMQLLRDNLTLWTSENQGDEGDAGEGEN

How the values were obtained:
[1] = biological target: B4; test: FP
[2] = biological target: B5; test: FP
peptide 13 [3] = test: FP
peptide 13 [4] = test: FP; remark: listed apart in the source
[5] = biological target: B5; test: FP
[6] = biological target: B2; test: FP
[7] = biological target: B2; test: FP
[8] = biological target: T1, 14-3-3θ, full length, N-terminally His6-tagged (human, UniProt P27348 1-245); test: FP
T1 chain: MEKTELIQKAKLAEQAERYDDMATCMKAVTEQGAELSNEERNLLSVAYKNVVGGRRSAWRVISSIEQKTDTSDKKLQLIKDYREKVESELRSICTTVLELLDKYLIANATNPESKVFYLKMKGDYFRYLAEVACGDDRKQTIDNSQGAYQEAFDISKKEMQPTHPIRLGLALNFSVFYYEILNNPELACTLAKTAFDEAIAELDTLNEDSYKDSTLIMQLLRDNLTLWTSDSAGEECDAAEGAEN

[9] = biological target: T2, 14-3-3ε, full length, N-terminally His6-tagged (human, UniProt P62258 1-255); test: FP
T2 chain: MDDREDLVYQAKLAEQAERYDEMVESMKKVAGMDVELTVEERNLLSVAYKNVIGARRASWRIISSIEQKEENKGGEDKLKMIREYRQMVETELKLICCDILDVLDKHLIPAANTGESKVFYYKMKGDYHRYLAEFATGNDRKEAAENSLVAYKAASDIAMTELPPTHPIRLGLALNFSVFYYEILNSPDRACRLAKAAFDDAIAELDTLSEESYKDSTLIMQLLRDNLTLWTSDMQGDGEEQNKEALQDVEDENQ

[10] = biological target: B4; test: FP
[11] = biological target: B5; test: FP
[12] = biological target: T3, 14-3-3γ, full length, N-terminally His6-tagged (human, UniProt P61981 1-247); test: FP
T3 chain: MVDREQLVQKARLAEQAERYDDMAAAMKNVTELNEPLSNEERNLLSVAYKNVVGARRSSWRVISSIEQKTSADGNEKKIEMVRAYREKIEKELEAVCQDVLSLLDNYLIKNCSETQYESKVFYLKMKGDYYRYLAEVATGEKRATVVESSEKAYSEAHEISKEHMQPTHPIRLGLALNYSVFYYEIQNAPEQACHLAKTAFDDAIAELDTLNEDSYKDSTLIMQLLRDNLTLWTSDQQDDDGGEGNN

[13] = biological target: T4, 14-3-3ζ, full length, N-terminally His6-tagged (human, UniProt P63104 1-245); test: FP
T4 chain: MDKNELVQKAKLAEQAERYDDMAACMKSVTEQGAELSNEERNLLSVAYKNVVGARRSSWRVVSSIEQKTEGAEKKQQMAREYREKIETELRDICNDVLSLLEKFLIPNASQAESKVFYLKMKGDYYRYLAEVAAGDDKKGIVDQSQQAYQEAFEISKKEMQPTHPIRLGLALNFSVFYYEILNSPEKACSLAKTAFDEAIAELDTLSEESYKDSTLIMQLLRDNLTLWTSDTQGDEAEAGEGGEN

[14] = biological target: B2; test: FP
[15] = biological target: B2; test: ITC
[16] = biological target: B2; test: ITC; replicate A
[17] = biological target: B2; test: ITC; replicate B

**Q.** How did the Kd [1] turn out when B1 was run?
**A.** 1.8 µM

**Q.** And the Kd [2]?
**A.** 0.11 µM

**Q.** B2 was tested. Which Kd (peptide 13 [3]) did it give?
**A.** > 83 µM

**Q.** What about the Kd (peptide 13 [4]) of the same binder?
**A.** > 83 µM

**Q.** What does the source list for PASATTLDQ (also: one phosphorylated Ser/Thr within Ser61–Thr64) [peptide 16, monophosphorylated APN 9-mer (noncanonical site of peptide 12)]?
**A.** Kd [5]: > 333 µM; Kd [6]: > 167 µM

**Q.** Which Kd [1] does the source give for B3 here?
**A.** > 167 µM

**Q.** What about the Kd [2] of the same binder?
**A.** 60 µM

**Q.** For TTNPASATT (also: one phosphorylated Ser/Thr within Ser61–Thr64) [peptide 14, monophosphorylated APN 9-mer (noncanonical site of peptide 10)], which Kd [5] is on record?
**A.** > 167 µM

**Q.** What about the Kd [6] of the same binder?
**A.** 70 µM

**Q.** {FITC-PEG2′}-EKNKNAN[pS]SPVASTTPSASATTNPASATTLDQSKAWNR (also: second phosphorylation within Ser61–Thr64, site not given here) [fluorescently labeled peptide 12, APN 36–73, bis-phosphorylated] was tested. Which Kd [6] did it give?
**A.** 0.18 µM

**Q.** And the Kd [1]?
**A.** 4.1 µM

**Q.** What about the Kd [2] of the same binder?
**A.** 0.45 µM

**Q.** And the Kd [7]?
**A.** 0.18 µM

**Q.** How did the Kd [6] turn out when {FITC-PEG2′}-EKNKNAN[pS]SPVASTTPSASATTNPASATTLDQSKAWNR (also: second phosphorylated Ser/Thr, site not given here) [fluorescently labeled peptide 8, APN 36–73, bis-phosphorylated] was run?
**A.** 18 µM

**Q.** What about the Kd [1] of the same binder?
**A.** > 167 µM

**Q.** What about the Kd [2] of the same binder?
**A.** 32 µM

**Q.** And the Kd [7]?
**A.** 18 µM

**Q.** What does the source list for {FITC-PEG2′}-NKNAN[pS]SPV [FITC-labeled peptide 1, APN 38–46 pSer43]?
**A.** Kd [1]: 3.5 µM; Kd [2]: 0.71 µM; Kd [8]: 2 µM; Kd [9]: 1.1 µM; Kd [10]: 3.9 µM; Kd [11]: 0.7 µM; Kd [12]: 1.16 µM; Kd [13]: 1.2 µM; Kd [14]: 0.21 µM

**Q.** For B4, which Kd (peptide 13 [4]) is on record?
**A.** > 167 µM

**Q.** What does the source list for {FITC-PEG2′}-EKNKNAN[pS]SPVASTTPSASATTNPASATTLDQSKAWNR (also: second phosphorylated Ser/Thr, site not given here) [fluorescently labeled peptide 9, APN 36–73, bis-phosphorylated]?
**A.** Kd [6]: 15 µM; Kd [1]: > 167 µM; Kd [2]: 23 µM; Kd [7]: 15 µM

**Q.** With NKNAN[pS]SPV [peptide 1, APN 38–46 pSer43, as used in ITC] as the binder, how does the Ka [15] read?
**A.** 403000 M⁻¹ and 488000 M⁻¹ and 497000 M⁻¹

**Q.** And the Kd [16]?
**A.** 2.48 µM

**Q.** And the Kd [17]?
**A.** 2.01 µM

**Q.** For NPASA[pT]TLD [peptide 15, monophosphorylated APN 9-mer pThr63 (site 2)], which Kd [5] is on record?
**A.** 45 µM

**Q.** What does the source list for {FITC-PEG2′}-EKNKNAN[pS]SPVASTTPSASATTNPASATTLDQSKAWNR (also: second phosphorylation within Ser61–Thr64, site not given here) [fluorescently labeled peptide 10, APN 36–73, bis-phosphorylated]?
**A.** Kd [6]: 0.42 µM; Kd [1]: 6.6 µM; Kd [2]: 0.88 µM; Kd [7]: 0.42 µM

**Q.** For B5, which Kd (peptide 13 [4]) is on record?
**A.** > 167 µM
